The record followed here is article PMC6473055, “ALCAM Mediates DC Migration Through Afferent Lymphatics and Promotes Allospecific Immune Reactions” (Frontiers in Immunology, 2019).

In this assay the target is T1, murine CD166(1-527)-His (mouse, UniProt Q61490 28-527).
T1 construct: signal peptide in the construct; ALCAM (CD166), mouse, residues 1-527 as printed; also called murine ALCAM; source: bought: Sino Biological, purified
T1 sequence (looked up): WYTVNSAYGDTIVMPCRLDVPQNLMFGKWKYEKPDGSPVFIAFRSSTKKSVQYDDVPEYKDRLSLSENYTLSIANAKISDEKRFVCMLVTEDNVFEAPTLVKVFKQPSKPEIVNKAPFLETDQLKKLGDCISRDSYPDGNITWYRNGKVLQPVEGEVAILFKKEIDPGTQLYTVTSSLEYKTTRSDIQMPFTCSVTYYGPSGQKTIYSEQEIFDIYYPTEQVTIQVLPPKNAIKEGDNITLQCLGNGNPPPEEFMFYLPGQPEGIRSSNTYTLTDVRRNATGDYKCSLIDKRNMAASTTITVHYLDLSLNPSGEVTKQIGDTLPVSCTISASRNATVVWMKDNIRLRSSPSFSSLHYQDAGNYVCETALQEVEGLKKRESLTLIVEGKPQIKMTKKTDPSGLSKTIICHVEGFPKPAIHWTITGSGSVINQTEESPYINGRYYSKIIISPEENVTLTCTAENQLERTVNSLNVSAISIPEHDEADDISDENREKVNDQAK
The assay is described as follows: ELISA; competition ELISA: plates coated overnight at 4°C with murine CD166(1-527)-His (5 μg/ml), blocked with PBS with 2% milk powder; 2 h at RT with a fixed amount of murine CD6-Fc (1 μg/ml) and I/F8-Fc or KSF-Fc in PBS (4 to 0.25 μg/ml); bound CD6-Fc detected with HRP-coupled anti-human IgG. As to conditions: both partners purified. A general note: An ELISA detects its analyte on a solid surface through an enzyme-linked reagent.

B1: murine CD6-Fc (Fc fusion, mouse, UniProt Q61003 17-398, looked up)
chain: GLPSPAPSGQHKNGTIPNMTLDLEERLGIRLVNGSSRCSGSVKVLLESWEPVCAAHWNRAATEAVCKALNCGDSGKVTYLMPPTSELPPGATSGNTSSAGNTTWARAPTERCRGANWQFCKVQDQECSSDRRLVWVTCAENQAVRLVDGSSRCAGRVEMLEHGEWGTVCDDTWDLQDAHVVCKQLKCGWAVKALAGLHFTPGQGPIHRDQVNCSGTEAYLWDCPGRPGDQYCGHKEDAGVVCSEHQSWRLTGGIDSCEGQVEVYFRGVWSTVCDSEWYPSEAKVLCRSLGCGSAVARPRGLPHSLDGRMYYSCKGQEPALSTCSWRFNNSNLCSQSRAARVVCSGSQRHLNLSTSEVPSRVPVTIESSVPVSVKDKDSQGLT
notes: CD6, mouse; source: bought: R&D Systems
Take B1: the binding result is “binds”.
